# Experiments:
# Asp40 [1] = molecular target: Asp40 (UniProt position 122, RLLEVDTPETK); test: NMR; conditions: 298 K; 100 mM KCl, 0.5 mM NaN3 (no buffer stated); folded, no ligand
# Asp19 = Asp19 (UniProt position 101, LIKAIDGDTVK); test: NMR
# Glu75 = Glu75 (UniProt position 157, KKIEVEFDKGQ); test: NMR
# Asp95 = Asp95 (UniProt position 177, AYIYADGKMVN); test: NMR
# Glu101 = Glu101 (UniProt position 183, GKMVNEALVRQ); test: NMR
# Asp146 = Asp146 (UniProt position 228, SEDNADSGQ--); test: NMR
# Glu38 [2] = molecular target: T1, Glu38 (UniProt position 120, TFRLLEVDTPE); test: NMR; conditions: 298 K; 100 mM KCl, 0.5 mM NaN3 (no buffer stated); folded, no ligand
# Asp77 = Asp77 (UniProt position 159, IEVEFDKGQRT); test: NMR
# Glu129 = Glu129 (UniProt position 211, LLRKAEAQAKK); test: NMR
# Asp143 = Asp143 (UniProt position 225, NIWSEDNADSG); test: NMR
# Glu52 = Glu52 (UniProt position 134, PKKFNEKYGPE); test: NMR
# Glu43 [3] = molecular target: Glu43 (UniProt position 125, EVDTPETKHPK); test: NMR; conditions: 298 K; 100 mM KCl, 0.5 mM NaN3 (no buffer stated); folded, no ligand
# Glu10 = Glu10 (UniProt position 92, KKLHKEPATLI); test: NMR
# Glu142 = Glu142 (UniProt position 224, LNIWSEDNADS); test: NMR
# Asp83 = Asp83 (UniProt position 165, KGQRTDKYGRG); test: NMR
# Glu57 = Glu57 (UniProt position 139, EKYGPEASAFT); test: NMR
# Glu67 = Glu67 (UniProt position 149, TKKMVENAKKI); test: NMR
# Glu122 = Glu122 (UniProt position 204, GNNTHEQLLRK); test: NMR
# Glu135 = Glu135 (UniProt position 217, AQAKKEKLNIW); test: NMR
# Glu73 = Glu73 (UniProt position 155, NAKKIEVEFDK); test: NMR
# Asp21 = Asp21 (UniProt position 103, KAIDGDTVKLM); test: NMR
# Glu38 [4] = molecular target: T1, Glu38; test: stability; conditions: folded/unfolded equilibrium, no ligand
# Asp40 [5] = molecular target: Asp40 (UniProt position 122, RLLLVDTPETK); test: NMR; conditions: folded Δ+PHS nuclease; cited from earlier work
# Glu43 [6] = molecular target: Glu43 (UniProt position 125, LVDTPETKHPK); test: NMR; conditions: folded Δ+PHS nuclease; cited from earlier work
# His8 = His8 (UniProt position 90, STKKLHKEPAT); conditions: folded Δ+PHS nuclease; cited from earlier work
# Asp40 [7] = molecular target: Asp40 (UniProt position 122, RLLKVDTPETK); test: NMR; conditions: 298 K; 100 mM KCl, 0.5 mM NaN3 (no buffer stated); folded, no ligand
# Glu43 [8] = molecular target: Glu43 (UniProt position 125, KVDTPETKHPK); test: NMR; conditions: 298 K; 100 mM KCl, 0.5 mM NaN3 (no buffer stated); folded, no ligand
# Lys38 = Lys38 (UniProt position 120, TFRLLKVDTPE); test: stability; conditions: cited from earlier work
# Asp38 [9] = molecular target: T2, Asp38 (UniProt position 120, TFRLLDVDTPE); test: NMR; conditions: 298 K; 100 mM KCl, 0.5 mM NaN3 (no buffer stated); folded, no ligand
# Asp38 [10] = molecular target: T2, Asp38; test: stability; conditions: folded/unfolded equilibrium, no ligand
# [11] = 298 K, 100 mM KCl, 0.5 mM NaN3 (no buffer stated), folded, no ligand
# [12] = folded Δ+PHS nuclease, cited from earlier work
substance,measurement,setting,value
Staphylococcal nuclease Δ+PHS/L38E (Staphylococcus aureus; G50F;V51N;P117G;H124L;S128A;del44-49;L38E),pKa,Asp40 [1],3.9
same,pKa,Asp19; [11],< 2.5
same,pKa,Glu75; [11],3.3
same,pKa,Asp95; [11],2.3
same,pKa,Glu101; [11],3.9
same,pKa,Asp146; [11],3.9
same,pKa,Glu38 [2],7.0
same,pKa,Asp77; [11],< 2.5
same,pKa,Glu129; [11],3.9
same,pKa,Asp143; [11],3.8
same,pKa,Glu52; [11],4.0
same,pKa,Glu43 [3],4.4
same,pKa,Glu10; [11],3.1
same,pKa,Glu142; [11],4.5
same,pKa,Asp83; [11],< 2.5
same,pKa,Glu57; [11],3.6
same,pKa,Glu67; [11],3.8
same,pKa,Glu122; [11],3.8
same,pKa,Glu135; [11],3.8
same,pKa,Glu73; [11],3.4
same,pKa,Asp21; [11],6.6
same,pKa,Glu38 [4],7.0 +/- 0.3
Staphylococcal nuclease Δ+PHS/L38E/E122D (Staphylococcus aureus; G50F;V51N;P117G;H124L;S128A;del44-49;L38E;E122D),pKa,Glu38 [2],7.4
"Staphylococcal nuclease, Δ+PHS variant (Staphylococcus aureus; G50F;V51N;P117G;H124L;S128A;del44-49)",pKa,Asp19; [12],2.2
same,pKa,Glu75; [12],3.3
same,pKa,Asp95; [12],2.2
same,pKa,Asp40 [5],3.9
same,pKa,Glu101; [12],3.8
same,pKa,Asp146; [12],3.9
same,pKa,Asp77; [12],< 2.5
same,pKa,Glu129; [12],3.8
same,pKa,Asp143; [12],3.8
same,pKa,Glu52; [12],3.9
same,pKa,Glu43 [6],4.3
same,pKa,Glu10; [12],2.8
same,pKa,Glu142; [12],4.5
same,pKa,Asp83; [12],< 2.5
same,pKa,Glu57; [12],3.5
same,pKa,Glu67; [12],3.8
same,pKa,Glu122; [12],3.9
same,pKa,Glu135; [12],3.8
same,pKa,Glu73; [12],3.3
same,pKa,Asp21; [12],6.5
same,pKa,His8,6.5
Staphylococcal nuclease Δ+PHS/L38K (Staphylococcus aureus; G50F;V51N;P117G;H124L;S128A;del44-49;L38K),pKa,Asp40 [7],3.8
same,pKa,Glu43 [8],4.5
same,pKa,Asp19; [11],< 2.5
same,pKa,Asp95; [11],2.1
same,pKa,Glu101; [11],3.9
same,pKa,Asp146; [11],4.0
same,pKa,Glu129; [11],3.8
same,pKa,Asp143; [11],4.0
same,pKa,Glu52; [11],4.1
same,pKa,Glu10; [11],3.1
same,pKa,Glu142; [11],4.6
same,pKa,Asp83; [11],< 2.5
same,pKa,Glu57; [11],3.6
same,pKa,Glu67; [11],3.9
same,pKa,Glu122; [11],3.9
same,pKa,Glu135; [11],3.9
same,pKa,Glu73; [11],3.3
same,pKa,Asp21; [11],6.5
same,pKa,Lys38,≥ 10.4
Staphylococcal nuclease Δ+PHS/L38E/R126Q (Staphylococcus aureus; G50F;V51N;P117G;H124L;S128A;del44-49;L38E;R126Q),pKa,Glu38 [2],7.2
Staphylococcal nuclease Δ+PHS/L38D/E122Q (Staphylococcus aureus; G50F;V51N;P117G;H124L;S128A;del44-49;L38D;E122Q),pKa,Asp38 [9],6.6
same,pKa,Asp38 [10],6.9 +/- 0.3
Staphylococcal nuclease Δ+PHS/L38D (Staphylococcus aureus; G50F;V51N;P117G;H124L;S128A;del44-49;L38D),pKa,Asp38 [9],7.2
same,pKa,Asp38 [10],6.8 +/- 0.3
Staphylococcal nuclease Δ+PHS/L38E/E122Q (Staphylococcus aureus; G50F;V51N;P117G;H124L;S128A;del44-49;L38E;E122Q),pKa,Glu38 [2],6.2
Staphylococcal nuclease Δ+PHS/L38E/D77N (Staphylococcus aureus; G50F;V51N;P117G;H124L;S128A;del44-49;L38E;D77N),pKa,Glu38 [2],6.1

# Source: publication PMC3373015
